The chains are these.
T1: recombinant human IL-23R/Fc chimera (R&D Systems) (human, UniProt Q5VWK5 24-355)
T1 construct: Bought; also called rhIL23RFc
T1 sequence (looked up): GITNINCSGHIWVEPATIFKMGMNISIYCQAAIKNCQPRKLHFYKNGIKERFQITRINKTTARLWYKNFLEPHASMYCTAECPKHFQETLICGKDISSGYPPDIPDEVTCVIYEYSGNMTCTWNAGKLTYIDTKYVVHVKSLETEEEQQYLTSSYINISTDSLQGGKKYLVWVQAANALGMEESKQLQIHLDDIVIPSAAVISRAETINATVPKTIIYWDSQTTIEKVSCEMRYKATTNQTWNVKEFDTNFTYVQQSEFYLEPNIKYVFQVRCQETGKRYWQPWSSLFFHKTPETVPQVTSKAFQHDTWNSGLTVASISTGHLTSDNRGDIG

B1: 001-89.C3C monomeric CTLD (designed binder)
chain: ALQTVCLKGTKVHMKCFLAFTQTKTFHEASEDCISRGGTLSTPQTGSENDALYEYLRQSVGNEAEIWLGLNANRRRTMWVDMTGARIAYKNWETEITAQPDGGMGVWGENCAVLSGAANGKWFDKRCRDQLPYICQFGIV
notes: C-terminal tag not specified
B2: 001-89.C7F monomeric CTLD (designed binder)
chain: B1 chain with A72G, N73S, R74L, R75L, R76T, T77G, M78L, M104Y, V106A
B3: 001-89.C12E monomeric CTLD (designed binder)
chain: B1 chain with A72W, N73T, R74K, R76T, T77A, M78L, G105F, V106G, W107M
notes: C-terminal tag not specified
B4: 105-08-1A7 ATRIMER complex (designed binder)
chain: EPPTQKPKKIVNAKKDVVNTKMFEELKSRLDTLAQEVALLKEQQALQTVCLKGTKVHMKCFLAFTQTKTFHEASEDCISRGGTLSTPQTGSENDALYEYLRQSVGNEAEIWLGLNGSVRTNTWVDMTGARIAYKNWETEITAQPDGGFGYFGENCAVLSGAANGKWFDKRCRDQLPYICQFGIV
modifications: ATRIMER complex: homotrimer of three copies of this chain, joined by the tetranectin coiled coil
notes: not shown: C-terminal tag: Myc/His (pANA4) or HA-StrepII (pANA10)
B5: 105-08-1B10 ATRIMER complex (designed binder)
chain: B4 chain with V118R, R119H, N121D
notes: not shown: C-terminal tag: His/Myc (pANA4) or HA-StrepII (pANA10)
B6: 105-08-1C11 ATRIMER complex (designed binder)
chain: B4 chain with V118S, N121D
modifications: ATRIMER complex: homotrimer of three copies of this chain, joined by the tetranectin coiled coil
notes: as for B4
B7: 105-08-2C4 ATRIMER complex (designed binder)
chain: B4 chain with V118L, R119L
modifications: ATRIMER complex: homotrimer of three copies of this chain, joined by the tetranectin coiled coil
notes: as for B4
B8: 105-08-1A10 ATRIMER complex (designed binder)
chain: B4 chain with V118S, R119I, N121D, F148W
notes: as for B5
B9: 105-08-1C3 ATRIMER complex (designed binder)
chain: B4 chain with V118Q, R119L, N121D, F148W
B10: 105-08-2H6 ATRIMER complex (designed binder)
chain: B4 chain with V118P, R119V, N121G
B11: 105-08-2H2 ATRIMER complex (designed binder)
chain: B4 chain with V118P, R119T, N121D, F148W
B12: 105-08-1C9 ATRIMER complex (designed binder)
chain: B4 chain with V118T, R119L, N121D
B13: 105-08-2G6 ATRIMER complex (designed binder)
chain: B4 chain with V118L, R119L, N121D, F148W
B14: 105-08-2C8 ATRIMER complex (designed binder)
chain: B4 chain with V118W, R119L, N121D, F148W
B15: 105-08-2C11 ATRIMER complex (designed binder)
chain: B4 chain with V118L, R119K, N121Q, F148W
B16: 105-08-2C1 ATRIMER complex (designed binder, not shown: small tags and cut ends)
chain: B4 chain with V118S, R119L, N121D, F148W
B17: 105-08-2H10 ATRIMER complex (designed binder)
chain: B4 chain with V118N, R119H, N121D
B18: 105-08-2A1 ATRIMER complex (designed binder)
chain: B4 chain with V118M, N121D, F148W
B19: 105-08-2C12 ATRIMER complex (designed binder, not shown: small tags and cut ends)
chain: B4 chain with V118Q, N121D
B20: 105-08-1D2 ATRIMER complex (designed binder)
chain: B4 chain with V118P, R119V, N121D
notes: as for B5
B21: 105-08-2G2 ATRIMER complex (designed binder)
chain: B4 chain with V118A, R119I, N121D, F148W
B22: 105-08-2E12 ATRIMER complex (designed binder)
chain: B4 chain with V118G, R119L, N121D, F148W
B23: 105-08-1G9 ATRIMER complex (designed binder)
chain: B4 chain with V118P, R119K, N121D
B24: 105-08-2B3 ATRIMER complex (designed binder, not shown: small tags and cut ends)
chain: B4 chain with V118A, R119I, F148W
B25: 105-08-1C2 ATRIMER complex (designed binder)
chain: B4 chain with V118R, R119A, N121D
B26: 105-08-2H3 ATRIMER complex (designed binder)
chain: B4 chain with V118S, R119L, F148W
modifications: ATRIMER complex: homotrimer of three copies of this chain, joined by the tetranectin coiled coil
notes: as for B4
B27: 105-08-1C6 ATRIMER complex (designed binder)
chain: B4 chain with V118A, R119L, N121D
B28: 105-08-1D1 ATRIMER complex (designed binder, not shown: small tags and cut ends)
chain: B4 chain with V118A, R119L, N121D, F148W
B29: 105-08-1B1 ATRIMER complex (designed binder)
chain: B4 chain with V118P, N121Q
modifications: ATRIMER complex: homotrimer of three copies of this chain, joined by the tetranectin coiled coil
notes: as for B4
B30: 105-08-2G4 ATRIMER complex (designed binder)
chain: B4 chain with V118P, N121G
B31: 105-08-1G12 ATRIMER complex (designed binder)
chain: B4 chain with V118L, N121G, F148W
modifications: Homotrimer (ATRIMER complex) of the one chain given.
B32: 105-08-2H4 ATRIMER complex (designed binder)
chain: B4 chain with N121D
B33: 105-08-2C9 ATRIMER complex (designed binder)
chain: B4 chain with V118T, R119L, F148W
B34: 105-08-1G2 ATRIMER complex (designed binder)
chain: B4 chain with V118S, R119K, F148W
B35: 105-08-2C6 ATRIMER complex (designed binder)
chain: B4 chain with V118Q, N121D, F148W
B36: 105-08-1C10 ATRIMER complex (designed binder)
chain: B4 chain with V118S, R119V, F148W
B37: 105-08-1B7 ATRIMER complex (designed binder)
chain: B4 chain with V118P, N121D
B38: 105-08-1C4 ATRIMER complex (designed binder, not shown: small tags and cut ends)
chain: B4 chain with V118T, R119L, N121D, F148W
B39: 105-08-1D12 ATRIMER complex (designed binder)
chain: B4 chain with R119L, N121D
notes: as for B5
B40: 105-08-1D10 ATRIMER complex (designed binder)
chain: B4 chain with V118A, N121G, F148W
B41: 105-08-2D2 ATRIMER complex (designed binder)
chain: B4 chain with V118A, N121G
B42: 105-08-2G1 ATRIMER complex (designed binder)
chain: B4 chain with V118P, R119K, N121H

As a reminder, the Kd is the equilibrium constant for the complex coming apart. By koff is commonly meant the first-order rate constant of dissociation. One may read the kon as a measure of how fast the partners come together.

Positions count from the first letter of the chain named. Names may count otherwise.

The target in the first experiment is T1, recombinant human IL-23R/Fc chimera …. The experiment can be described thus: SPR. How it is done: A Biacore 3000 biosensor (GE Healthcare) was used to evaluate the interaction of human IL-23R and receptor binders. Immobilization of an anti-human IgG Fc antibody (GE Healthcare) to the CM5 chip (GE Healthcare) was performed using standard amine coupling chemistry, and this modified surface was used to capture a recombinant human IL-23R/Fc fusion protein (R&D Systems). A low-density receptor surface, less than 200 RU, was used for all of the analyses. ATRIMER™ polypeptide complex dilutions (1-500 nM) were injected over the IL-23R surface at 30 μl/min and kinetic constants were derived from the sensorgram data using the Biaevaluation software (version 3.1, GE Healthcare). Data collection was 3 minutes for the association and 5 minutes for dissociation. The anti-human IgG surface was regenerated with a 30s pulse of 3M magnesium chloride. All sensorgrams were double-referenced against an activated and blocked flow-cell as well as buffer injections.
(In general: Surface plasmon resonance follows binding to a sensor surface in real time, without labels.)
As to B1, the Ka came out at 5.34e+06 M⁻¹, the Kd was 187 nM, the koff amounted to 0.0158 s⁻¹ and the kon amounted to 84500 M⁻¹ s⁻¹.
In the case of B2, the Ka was 6.75e+06 M⁻¹, the equilibrium dissociation constant (Kd) was determined as 148 nM, the koff amounted to 0.00531 s⁻¹ and the kon was 35800 M⁻¹ s⁻¹.
B3: the Ka came out at 5.62e+06 M⁻¹, the Kd worked out at 178 nM, the dissociation rate constant (koff) stood at 0.0074 s⁻¹ and the kon turned out to be 41600 M⁻¹ s⁻¹.

A further experiment shares this target. Description: competition ELISA vs IL-23. The method, then: Assays were performed generally as follows. Individual wells in Immulon HB2 plates were incubated overnight at 4° C. with 100 μL PBS containing 100 ng of an anti-human IgG Fc (R&D MAB 110 clone 97924). Plates were washed five times with PBS/0.05% Tween 20, and wells were incubated for 1.5 h at RT with 100 μL each of PBS containing 50 ng of recombinant human IL-23R/Fc. […] Competitor was included at a final concentration of 1 μg/mL. After incubation, plates were washed as described and wells were incubated for 40 min at RT with 100 μL each of PBS containing a 1:5000 dilution of streptavidin-HRP conjugate (Pierce catalog no. 21130). After washing, wells were incubated with 100 μL each of TMB (BioFX Lab catalog no. TMBH-1000-0) for up to 30 min at RT. Reactions were stopped with an equal volume of 0.2 M sulfuric acid.
As to B4, the “Ratio IC50 to 056-53.H4E IC50” value is 2.9.
Turning to B5, the “Ratio IC50 to 056-53.H4E IC50” value was 4.7.
In the case of B6, the “Ratio IC50 to 056-53.H4E IC50” value was 2.8.
As to B7, the “Ratio IC50 to 056-53.H4E IC50” value worked out at 2.9.
Consider B8, for which the “Ratio IC50 to 056-53.H4E IC50” value is 4.3.
Still for that read-out and setting: under B9 stands 3.6; under B10, 2; under B11, 4.
Consider B12, for which the “Ratio IC50 to 056-53.H4E IC50” value amounted to 7.4.
With B13, the “Ratio IC50 to 056-53.H4E IC50” value came out at 5.2.
Consider B14, for which the “Ratio IC50 to 056-53.H4E IC50” value was determined as 8.4.
Turning to B15, the “Ratio IC50 to 056-53.H4E IC50” value was determined as 9.1.
Take B16: the “Ratio IC50 to 056-53.H4E IC50” value came to 3.6.
As for B17, the “Ratio IC50 to 056-53.H4E IC50” value came out at 6.5.
For the molecule B18, the “Ratio IC50 to 056-53.H4E IC50” value worked out at 5.
Turning to B19, the “Ratio IC50 to 056-53.H4E IC50” value amounted to 3.3.
With B20, the “Ratio IC50 to 056-53.H4E IC50” value came to 4.3.
For B21, the “Ratio IC50 to 056-53.H4E IC50” value is 3.8.
B22: the “Ratio IC50 to 056-53.H4E IC50” value was 9.1.
In the case of B23, the “Ratio IC50 to 056-53.H4E IC50” value was found to be 2.4.
Same read-out and setting: then B24, with 3.4; and B25, with 4.1; and B26, with 2.9.
Same read-out and setting: under B27 stands 2; under B28, 3.6.
Turning to B29, the “Ratio IC50 to 056-53.H4E IC50” value amounted to 3.3.
Regarding B30, the “Ratio IC50 to 056-53.H4E IC50” value worked out at 2.5.
The same measure, in the same setting: under B31 stands 13.2; under B32, 5.
Still for that read-out and setting: under B33 stands 5.3; under B34, 5.5.
Still for that read-out and setting: under B35 stands 3.6; under B36, 5.
In the case of B37, the “Ratio IC50 to 056-53.H4E IC50” value came to 4.1.
In the case of B38, the “Ratio IC50 to 056-53.H4E IC50” value came to 3.3.
The same measure, in the same setting: under B39 stands 4.6; under B40, 5.5.
For B41, the “Ratio IC50 to 056-53.H4E IC50” value stood at 4.1.
As to B42, the “Ratio IC50 to 056-53.H4E IC50” value amounted to 2.2.

The record behind these values is patent US20110086806A1 (published 2011).
